Data on one protein can be found in patent US20210071221.

Data set [1] concerns the target T1, Acceptor substrate 1 (SEQ ID NO: 4).
T1 chain: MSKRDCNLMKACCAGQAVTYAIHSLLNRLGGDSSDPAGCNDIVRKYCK

Data set [2] concerns the target T2, Acceptor substrate 6 (SEQ ID NO: 9).
T2 chain: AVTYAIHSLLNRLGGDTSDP

Data set [3] concerns the target T3, Acceptor substrate 2 (SEQ ID NO: 5).
T3 chain: T1 chain with S33C

Substitutions are numbered along the chain they refer to.

B1: C-terminal 6X-His tagged recombinant nucleotide dependent glycosyltransferase protein (GT-CTH) (protein)
chain: MGYSENFIANDWFNVEVFNKNKYTLTNQENKDVTELWLQILKGLKFPNELKETVSYSKNLKELSLKTHAEVSVCIIAKNEQDSIRKCINSIYEFSDEIIFIDTGSIDSTKKIVKEIASEKVKIFDYTWQDDFSDARNYSIQKASKEWILIIDADEYVSSDELIKLRLLIDMLDRFKFKDSLRVSCAIYQLDNVITHGQSRLFRNNNKIKYYGLIHEELRNNKGLDPIFNVESEITFFHDGYKEILRKEKCERNIRLLAKMLEKEPDNVRWAYLYCRDSFSINSNIDFEKILLPFLIKNMDESISCENILLTNYTHLILFLITKKYIIDGKSSLASKCIEVLEKMLPNSSDVTFYKFLNKQHSLYEQQFEFLKEVIQFRKNNEYDQYSQIGCNLLHYDLLISGLLFDVKSYDYSYQYFLKLDLANYFSELEIPDEYKMLINKYRENESLEHHHHHH
With B1, the “in vitro glycosylation of the acceptor peptide, LC-ESI-Q/TOF” value is reported as “observed average mass of di-glycosylated product as 5503.47 Da (Expected average mass 5503.00 Da)” in data set [1] and “observed monoisotopic mass of di-glycosylated product as 5515.53 Da (Expected monoisotopic mass 5515.41 Da)” in data set [3]. Besides, the “in vitro glycosylation of the acceptor peptide, MALDI-TOF” value in data set [2] is “observed (M+H)^+ of di-glycosylated product as 2424.65 Da (Expected (M+H)^+ 2424.07 Da) and observed (M+H)^+ of mono-glycosylated product as 2262.57 Da”.
